Measurements published in patent US20120108492A1 (REGENTS OF THE UNIVERSITY OF COLORADO, published 2012).

Biological target: wild-type recombinant EBV gp350 (residues 1-470 of EBV gp350/220, BCCP, myc, hexa-histidine) (Epstein-Barr virus (B95-8); Escherichia …, UniProt P03200 1-470; P0ABD8 70-156)
Assay: ELISA, wild-type gp350 on plate, MBP-CR2 SCR1-2 mutant in solution

Chain of wild-type recombinant EBV gp350 (residues 1-470 of EBV gp350/220, BCCP, myc, hexa-histidine) (P03200 1-470, tags or fused parts left off): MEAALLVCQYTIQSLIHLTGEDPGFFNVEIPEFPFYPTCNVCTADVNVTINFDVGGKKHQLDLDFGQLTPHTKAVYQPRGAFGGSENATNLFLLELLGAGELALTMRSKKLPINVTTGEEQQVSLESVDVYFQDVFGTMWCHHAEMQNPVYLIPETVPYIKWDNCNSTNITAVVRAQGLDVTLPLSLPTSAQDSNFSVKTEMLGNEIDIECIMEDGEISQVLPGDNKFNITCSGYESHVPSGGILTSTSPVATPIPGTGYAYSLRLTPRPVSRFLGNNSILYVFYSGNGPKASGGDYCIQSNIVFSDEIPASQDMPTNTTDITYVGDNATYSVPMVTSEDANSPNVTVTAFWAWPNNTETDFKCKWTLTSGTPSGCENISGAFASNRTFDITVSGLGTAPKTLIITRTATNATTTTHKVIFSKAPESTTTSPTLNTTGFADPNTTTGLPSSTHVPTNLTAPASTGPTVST

B1: MBP-CR2 SCR1-2 K67A (receptor)
chain: ISCGSPPPILNGRISYYSTPIAVGTVIRYSCSGTFRLIGEKSLLCITKDKVDGTWDKPAPKCEYFNAYSSCPEPIVPGGYKIRGSTPYRHGDSVTFACKTNFSMNGNKSVWCQANNMWGPTRLPTCVSVFPLE
notes: not shown: MBP tag encoded by pMAL-p2x and the vector linker between MBP and CR2
decrease in EBV gp350 binding relative to wild-type: ~20%
